In series [1] the target is T1, wildtype human HMGCS1 (3-hydroxy-3-methylglutaryl-coenzyme A synthase) (human), Q01581.
T1 chain: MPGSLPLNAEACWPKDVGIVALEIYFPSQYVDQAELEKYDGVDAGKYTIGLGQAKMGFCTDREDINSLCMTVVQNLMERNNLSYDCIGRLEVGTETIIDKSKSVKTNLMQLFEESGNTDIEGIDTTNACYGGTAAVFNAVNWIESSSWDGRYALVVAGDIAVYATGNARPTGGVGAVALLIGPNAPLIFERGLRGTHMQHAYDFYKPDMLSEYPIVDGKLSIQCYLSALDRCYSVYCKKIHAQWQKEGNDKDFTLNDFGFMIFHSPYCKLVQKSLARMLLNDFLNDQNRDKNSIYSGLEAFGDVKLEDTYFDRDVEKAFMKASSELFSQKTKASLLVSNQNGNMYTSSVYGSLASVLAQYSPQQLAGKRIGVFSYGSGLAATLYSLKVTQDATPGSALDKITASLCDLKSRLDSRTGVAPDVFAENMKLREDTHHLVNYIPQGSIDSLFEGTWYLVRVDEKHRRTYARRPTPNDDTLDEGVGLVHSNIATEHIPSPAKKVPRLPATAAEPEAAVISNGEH
Description: SEC. Particulars: remark: other sources report otherwise.

The series “SEC” concerns the molecule itself. In words: SEC.

B1: wildtype human HMGCS1 (3-hydroxy-3-methylglutaryl-coenzyme A synthase), Q01581 1-520 (enzyme)
chain: MPGSLPLNAEACWPKDVGIVALEIYFPSQYVDQAELEKYDGVDAGKYTIGLGQAKMGFCTDREDINSLCMTVVQNLMERNNLSYDCIGRLEVGTETIIDKSKSVKTNLMQLFEESGNTDIEGIDTTNACYGGTAAVFNAVNWIESSSWDGRYALVVAGDIAVYATGNARPTGGVGAVALLIGPNAPLIFERGLRGTHMQHAYDFYKPDMLSEYPIVDGKLSIQCYLSALDRCYSVYCKKIHAQWQKEGNDKDFTLNDFGFMIFHSPYCKLVQKSLARMLLNDFLNDQNRDKNSIYSGLEAFGDVKLEDTYFDRDVEKAFMKASSELFSQKTKASLLVSNQNGNMYTSSVYGSLASVLAQYSPQQLAGKRIGVFSYGSGLAATLYSLKVTQDATPGSALDKITASLCDLKSRLDSRTGVAPDVFAENMKLREDTHHLVNYIPQGSIDSLFEGTWYLVRVDEKHRRTYARRPTPNDDTLDEGVGLVHSNIATEHIPSPAKKVPRLPATAAEPEAAVISNGEH
With B1, the stoichiometry N – broadly, a count of units in the complex or per binding partner – in series [1] was found to be 2.

B2: human HMGCS1 p.Ser447Pro (enzyme, UniProt Q01581 1-520, looked up)
chain: MPGSLPLNAEACWPKDVGIVALEIYFPSQYVDQAELEKYDGVDAGKYTIGLGQAKMGFCTDREDINSLCMTVVQNLMERNNLSYDCIGRLEVGTETIIDKSKSVKTNLMQLFEESGNTDIEGIDTTNACYGGTAAVFNAVNWIESSSWDGRYALVVAGDIAVYATGNARPTGGVGAVALLIGPNAPLIFERGLRGTHMQHAYDFYKPDMLSEYPIVDGKLSIQCYLSALDRCYSVYCKKIHAQWQKEGNDKDFTLNDFGFMIFHSPYCKLVQKSLARMLLNDFLNDQNRDKNSIYSGLEAFGDVKLEDTYFDRDVEKAFMKASSELFSQKTKASLLVSNQNGNMYTSSVYGSLASVLAQYSPQQLAGKRIGVFSYGSGLAATLYSLKVTQDATPGSALDKITASLCDLKSRLDSRTGVAPDVFAENMKLREDTHHLVNYIPQGSIDPLFEGTWYLVRVDEKHRRTYARRPTPNDDTLDEGVGLVHSNIATEHIPSPAKKVPRLPATAAEPEAAVISNGEH
On to B2, for which, in the series “SEC”, the “stoichiometry N” value was determined as 2.

B3: human HMGCS1 p.Met70Thr (enzyme, UniProt Q01581 1-520, looked up)
chain: MPGSLPLNAEACWPKDVGIVALEIYFPSQYVDQAELEKYDGVDAGKYTIGLGQAKMGFCTDREDINSLCTTVVQNLMERNNLSYDCIGRLEVGTETIIDKSKSVKTNLMQLFEESGNTDIEGIDTTNACYGGTAAVFNAVNWIESSSWDGRYALVVAGDIAVYATGNARPTGGVGAVALLIGPNAPLIFERGLRGTHMQHAYDFYKPDMLSEYPIVDGKLSIQCYLSALDRCYSVYCKKIHAQWQKEGNDKDFTLNDFGFMIFHSPYCKLVQKSLARMLLNDFLNDQNRDKNSIYSGLEAFGDVKLEDTYFDRDVEKAFMKASSELFSQKTKASLLVSNQNGNMYTSSVYGSLASVLAQYSPQQLAGKRIGVFSYGSGLAATLYSLKVTQDATPGSALDKITASLCDLKSRLDSRTGVAPDVFAENMKLREDTHHLVNYIPQGSIDSLFEGTWYLVRVDEKHRRTYARRPTPNDDTLDEGVGLVHSNIATEHIPSPAKKVPRLPATAAEPEAAVISNGEH
As to B3, the “stoichiometry N” value in the series “SEC” was found to be 2.

B4: human HMGCS1 p.Cys268Ser (enzyme, UniProt Q01581 1-520, looked up)
chain: MPGSLPLNAEACWPKDVGIVALEIYFPSQYVDQAELEKYDGVDAGKYTIGLGQAKMGFCTDREDINSLCMTVVQNLMERNNLSYDCIGRLEVGTETIIDKSKSVKTNLMQLFEESGNTDIEGIDTTNACYGGTAAVFNAVNWIESSSWDGRYALVVAGDIAVYATGNARPTGGVGAVALLIGPNAPLIFERGLRGTHMQHAYDFYKPDMLSEYPIVDGKLSIQCYLSALDRCYSVYCKKIHAQWQKEGNDKDFTLNDFGFMIFHSPYSKLVQKSLARMLLNDFLNDQNRDKNSIYSGLEAFGDVKLEDTYFDRDVEKAFMKASSELFSQKTKASLLVSNQNGNMYTSSVYGSLASVLAQYSPQQLAGKRIGVFSYGSGLAATLYSLKVTQDATPGSALDKITASLCDLKSRLDSRTGVAPDVFAENMKLREDTHHLVNYIPQGSIDSLFEGTWYLVRVDEKHRRTYARRPTPNDDTLDEGVGLVHSNIATEHIPSPAKKVPRLPATAAEPEAAVISNGEH
As to B4, the “stoichiometry N” value in the series “SEC” was found to be 2.

B5: human HMGCS1 p.Gln29Leu (enzyme, UniProt Q01581 1-520, looked up)
chain: MPGSLPLNAEACWPKDVGIVALEIYFPSLYVDQAELEKYDGVDAGKYTIGLGQAKMGFCTDREDINSLCMTVVQNLMERNNLSYDCIGRLEVGTETIIDKSKSVKTNLMQLFEESGNTDIEGIDTTNACYGGTAAVFNAVNWIESSSWDGRYALVVAGDIAVYATGNARPTGGVGAVALLIGPNAPLIFERGLRGTHMQHAYDFYKPDMLSEYPIVDGKLSIQCYLSALDRCYSVYCKKIHAQWQKEGNDKDFTLNDFGFMIFHSPYCKLVQKSLARMLLNDFLNDQNRDKNSIYSGLEAFGDVKLEDTYFDRDVEKAFMKASSELFSQKTKASLLVSNQNGNMYTSSVYGSLASVLAQYSPQQLAGKRIGVFSYGSGLAATLYSLKVTQDATPGSALDKITASLCDLKSRLDSRTGVAPDVFAENMKLREDTHHLVNYIPQGSIDSLFEGTWYLVRVDEKHRRTYARRPTPNDDTLDEGVGLVHSNIATEHIPSPAKKVPRLPATAAEPEAAVISNGEH
Take B5: the “stoichiometry N” value in “SEC” amounted to 2.

For the origin of these results see paper doi:10.1101/2023.10.25.23297129 (medRxiv, 2023).
